Square brackets hold non-standard residues; d marks the D form. Ends that are not written are not given here. hArg = N=C(N)NCCCC[C@H](N)C(=O)O; Aib = CC(C)(N)C(=O)O

The target of test [1] is T1, rat PTH receptor (rat, UniProt P25961 27-591, limits assumed).
T1 construct: R0 and RG conformations assayed separately by the method of WO 2009/017809 or a similar one; also called rat PTHR1
T1 sequence (looked up): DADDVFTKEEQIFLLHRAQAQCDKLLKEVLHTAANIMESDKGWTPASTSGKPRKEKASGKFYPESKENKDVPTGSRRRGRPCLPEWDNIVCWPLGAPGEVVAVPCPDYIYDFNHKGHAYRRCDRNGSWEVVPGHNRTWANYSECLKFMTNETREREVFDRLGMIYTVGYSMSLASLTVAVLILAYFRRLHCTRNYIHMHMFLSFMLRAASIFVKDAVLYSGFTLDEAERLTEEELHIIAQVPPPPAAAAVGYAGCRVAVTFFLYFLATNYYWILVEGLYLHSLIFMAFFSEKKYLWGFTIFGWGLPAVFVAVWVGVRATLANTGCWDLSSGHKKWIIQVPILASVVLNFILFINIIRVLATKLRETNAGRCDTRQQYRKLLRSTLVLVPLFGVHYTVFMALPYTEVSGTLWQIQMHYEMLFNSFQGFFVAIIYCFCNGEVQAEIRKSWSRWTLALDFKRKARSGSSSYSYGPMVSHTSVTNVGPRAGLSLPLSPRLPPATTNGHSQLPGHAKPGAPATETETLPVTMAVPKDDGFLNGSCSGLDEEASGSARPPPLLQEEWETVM
The experiment in a line: radioligand displacement, rat PTHR1, RG conformation.

Test [2] addresses T2, human PTH-1 receptor (human, UniProt Q03431 27-593).
T2 construct: whole, on cells; also called human PTHR1; human PTH receptor
T2 sequence (looked up): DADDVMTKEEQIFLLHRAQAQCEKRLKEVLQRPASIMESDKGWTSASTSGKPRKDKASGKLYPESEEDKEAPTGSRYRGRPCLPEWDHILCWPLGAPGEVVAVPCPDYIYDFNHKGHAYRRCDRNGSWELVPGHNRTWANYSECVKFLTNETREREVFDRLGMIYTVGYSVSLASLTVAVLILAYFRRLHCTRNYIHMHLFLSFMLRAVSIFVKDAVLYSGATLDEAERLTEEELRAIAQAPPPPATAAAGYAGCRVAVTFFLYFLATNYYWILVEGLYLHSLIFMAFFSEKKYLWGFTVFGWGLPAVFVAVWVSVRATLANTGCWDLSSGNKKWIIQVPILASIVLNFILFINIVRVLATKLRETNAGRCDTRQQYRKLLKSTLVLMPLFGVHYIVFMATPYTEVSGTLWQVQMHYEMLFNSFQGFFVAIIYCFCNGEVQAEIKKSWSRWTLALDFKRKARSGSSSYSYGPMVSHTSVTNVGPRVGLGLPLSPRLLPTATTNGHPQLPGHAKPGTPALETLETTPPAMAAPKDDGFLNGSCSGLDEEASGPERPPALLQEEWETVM
As to the kind of experiment: radioligand competition, human PTHR1 in COS-7 membranes, R0 conformation. The method, then: (§1) Here, competition binding assays for the R⁰ and RG PTHR1 conformation were performed in membranes prepared from transfected COS-7 cells, as described by Dean et al., Mol Endocrinol 22:156-66, 2008. Data are means of three experiments, each performed in duplicate. Curves were fit to the data using Graph-Pad Prism 4.0.
On the technique in general: In a radioligand displacement assay an active substance lowers the binding of a labelled ligand.

In test [3] the target is T2, human PTH-1 receptor. The experiment in a line: radioligand competition, human PTHR1 in COS-7 membranes, RG conformation. The method, then: as §1
In test [4] the target is T1, rat PTH receptor. The experiment in a line: radioligand displacement, rat PTHR1, R0 conformation.

B1: SP-PTH ([Ala1,3,12,Gln10,Arg11,Trp14]PTH(1-14)/PTHrP(15-36)) (peptide)
peptide: AVAEIQLMHQRAKWIQDLRRRFFLHHLIAEIHTAEI-OH
notes: Synthetic hybrid analog of human PTH(1-14) and human PTHrP(15-36); also called Super-potent PTH; Mc-PTH(1-14)/rP(15-36)OH
One may read the IC50 as the point on the concentration scale where inhibition reaches its midpoint. A high value points to a need for much substance. Turning to B1, the 50% inhibitory concentration (IC50) in test [1] was determined as 0.61 nM; in test [2], 1.4 nM; in test [3] it was 0.48 nM; in test [4], 1.4 nM.

B2: SP-PTH-AAK ([Ala1,3,12,18,22,Gln10,Arg11,Trp14,Lys26]PTH(1-14)/PTHrP(15-36)) (peptide)
peptide: AVAEIQLMHQRAKWIQDARRRAFLHKLIAEIHTAEI-OH
notes: Synthetic hybrid analog of human PTH(1-14) and human PTHrP(15-36); also called Mc-PTH(1-14)/AAK-rP(15-36)OH; SP-AAK
B2: the IC50 in test [1] amounted to 0.7 nM; in test [2] it was 0.68 nM; in test [3] it was 0.22 nM; in test [4], 0.21 nM.

B3: M-PTH(1-34) (peptide)
peptide: AV[Aib]EIQLMHQ[hArg]AKWLNSMRRVEWLRKKLQDVHNF-NH2
modifications: N-terminus assumed
SMILES: CC[C@H](C)[C@H](NC(=O)[C@H](CCC(=O)O)NC(=O)C(C)(C)NC(=O)[C@@H](NC(=O)[C@H](C)N)C(C)C)C(=O)N[C@@H](CCC(N)=O)C(=O)N[C@@H](CC(C)C)C(=O)N[C@@H](CCSC)C(=O)N[C@@H](Cc1c[nH]cn1)C(=O)N[C@@H](CCC(N)=O)C(=O)N[C@@H](CCCCNC(=N)N)C(=O)N[C@@H](C)C(=O)N[C@@H](CCCCN)C(=O)N[C@@H](Cc1c[nH]c2ccccc12)C(=O)N[C@@H](CC(C)C)C(=O)N[C@@H](CC(N)=O)C(=O)N[C@@H](CO)C(=O)N[C@@H](CCSC)C(=O)N[C@@H](CCCNC(=N)N)C(=O)N[C@@H](CCCNC(=N)N)C(=O)N[C@H](C(=O)N[C@@H](CCC(=O)O)C(=O)N[C@@H](Cc1c[nH]c2ccccc12)C(=O)N[C@@H](CC(C)C)C(=O)N[C@@H](CCCNC(=N)N)C(=O)N[C@@H](CCCCN)C(=O)N[C@@H](CCCCN)C(=O)N[C@@H](CC(C)C)C(=O)N[C@@H](CCC(N)=O)C(=O)N[C@@H](CC(=O)O)C(=O)N[C@H](C(=O)N[C@@H](Cc1c[nH]cn1)C(=O)N[C@@H](CC(N)=O)C(=O)N[C@@H](Cc1ccccc1)C(N)=O)C(C)C)C(C)C
notes: M residues: Ala1,12, Aib3, Gln10, homoArg11, Trp14, Arg19; also called M-PTH(1-34).NH2; MGH# 1577
On to B3, for which the IC50 in test [1] was found to be 0.9 nM; in test [2] it was 0.95 nM; in test [3], 0.45 nM; in test [4], 1.5 nM.

B4: Aib-SP-PTH ([Ala1,12,Aib3,Gln10,Har11,Trp14]PTH(1-14)/PTHrP(15-36)) (peptide)
peptide: AV[Aib]EIQLMHQ[hArg]AKWIQDLRRRFFLHHLIAEIHTAEI-NH2
modifications: N-terminus assumed
SMILES: CC[C@H](C)[C@H](NC(=O)[C@H](CCC(=O)O)NC(=O)[C@H](C)NC(=O)[C@@H](NC(=O)[C@H](Cc1c[nH]cn1)NC(=O)[C@@H](NC(=O)[C@H](CCC(=O)O)NC(=O)[C@H](C)NC(=O)[C@@H](NC(=O)[C@H](CC(C)C)NC(=O)[C@H](Cc1c[nH]cn1)NC(=O)[C@H](Cc1c[nH]cn1)NC(=O)[C@H](CC(C)C)NC(=O)[C@H](Cc1ccccc1)NC(=O)[C@H](Cc1ccccc1)NC(=O)[C@H](CCCNC(=N)N)NC(=O)[C@H](CCCNC(=N)N)NC(=O)[C@H](CCCNC(=N)N)NC(=O)[C@H](CC(C)C)NC(=O)[C@H](CC(=O)O)NC(=O)[C@H](CCC(N)=O)NC(=O)[C@@H](NC(=O)[C@H](Cc1c[nH]c2ccccc12)NC(=O)[C@H](CCCCN)NC(=O)[C@H](C)NC(=O)[C@H](CCCCNC(=N)N)NC(=O)[C@H](CCC(N)=O)NC(=O)[C@H](Cc1c[nH]cn1)NC(=O)[C@H](CCSC)NC(=O)[C@H](CC(C)C)NC(=O)[C@H](CCC(N)=O)NC(=O)[C@@H](NC(=O)[C@H](CCC(=O)O)NC(=O)C(C)(C)NC(=O)[C@@H](NC(=O)[C@H](C)N)C(C)C)[C@@H](C)CC)[C@@H](C)CC)[C@@H](C)CC)[C@@H](C)CC)[C@@H](C)O)C(N)=O
notes: Synthetic hybrid analog of human PTH(1-14) and human PTHrP(15-36); also called Super-potent Aib-PTH; M-PTH(1-14)/rP(15-36)NH2
In the case of B4, the IC50 in test [2] is 1.8 nM; in test [3], 0.69 nM; in test [4], 0.93 nM.

B5: Aib-SP-PTH-AAK ([Ala1,12,18,22,Aib3,Gln10,Har11,Trp14,Lys26]PTH(1-14)/PTHrP(15-36)) (peptide)
peptide: AV[Aib]EIQLMHQ[hArg]AKWIQDARRRAFLHKLIAEIHTAEI-NH2
modifications: N-terminus assumed
SMILES: CC[C@H](C)[C@H](NC(=O)[C@H](CCC(=O)O)NC(=O)[C@H](C)NC(=O)[C@@H](NC(=O)[C@H](Cc1c[nH]cn1)NC(=O)[C@@H](NC(=O)[C@H](CCC(=O)O)NC(=O)[C@H](C)NC(=O)[C@@H](NC(=O)[C@H](CC(C)C)NC(=O)[C@H](CCCCN)NC(=O)[C@H](Cc1c[nH]cn1)NC(=O)[C@H](CC(C)C)NC(=O)[C@H](Cc1ccccc1)NC(=O)[C@H](C)NC(=O)[C@H](CCCNC(=N)N)NC(=O)[C@H](CCCNC(=N)N)NC(=O)[C@H](CCCNC(=N)N)NC(=O)[C@H](C)NC(=O)[C@H](CC(=O)O)NC(=O)[C@H](CCC(N)=O)NC(=O)[C@@H](NC(=O)[C@H](Cc1c[nH]c2ccccc12)NC(=O)[C@H](CCCCN)NC(=O)[C@H](C)NC(=O)[C@H](CCCCNC(=N)N)NC(=O)[C@H](CCC(N)=O)NC(=O)[C@H](Cc1c[nH]cn1)NC(=O)[C@H](CCSC)NC(=O)[C@H](CC(C)C)NC(=O)[C@H](CCC(N)=O)NC(=O)[C@@H](NC(=O)[C@H](CCC(=O)O)NC(=O)C(C)(C)NC(=O)[C@@H](NC(=O)[C@H](C)N)C(C)C)[C@@H](C)CC)[C@@H](C)CC)[C@@H](C)CC)[C@@H](C)CC)[C@@H](C)O)C(N)=O
notes: Synthetic hybrid analog of human PTH(1-14) and human PTHrP(15-36); also called Super-potent Aib-AAK PTH; M-PTH(1-14)AAK-/rP(15-36)NH2
For B5, the half-maximal inhibitory concentration (IC50) in test [1] stood at 0.45 nM; in test [2] it was 0.94 nM; in test [3], 0.37 nM.
